Source: patent publication US20250051437A1 (University of California, published 2025)

Tests used:
[1] = target: T1, human cadherin-17 (CDH17), endogenously expressed on human cancer cell lines (LS513, SNU-C1, PaTu8988s, … (human, UniProt Q12864 23-832)); experiment: flow cytometry of the ADC on LS513 cells (CDH17+), 20 µg/ml
T1 construct: also called LS513 (Colon, CDH17+); HPAF2

[2] = target: T1, human cadherin-17 (CDH17), endogenously …; experiment: indirect flow cytometry (iQue) on LS513 cells (CDH17+), anti-His secondary antibody
Description: Bispecific antibodies and scFv fragments were assessed for their binding effect to CDH17 positive cells by an indirect flow cytometry assay iQue® (Sartorius, Gottingen, Germany). The asssays were performed with CDH17 positive LS513 cells or CDH17 negative M202 cells using the primary antibody and fluorochrome-labeled anti-His secondary antibody using the iQue® where FL4-H values acquired by iQue® software were reported.

[3] = target: T1, human cadherin-17 (CDH17), endogenously …; experiment: flow cytometry (iQue) on LS513 cells, 0.2 µg Ab
[4] = target: T2, rat CDH17 fused to moxGFP, overexpressed on HEK293T cells (rat, UniProt P55281 22-827); experiment: flow cytometry on HEK293T rat CDH17mGFP mass population, 20 µg/ml
T2 construct: whole, on cells; also called HEK293T Rat CDH17mGFP mass pop; rat CDH17-moxGFP
T2 sequence (P55281 22-827): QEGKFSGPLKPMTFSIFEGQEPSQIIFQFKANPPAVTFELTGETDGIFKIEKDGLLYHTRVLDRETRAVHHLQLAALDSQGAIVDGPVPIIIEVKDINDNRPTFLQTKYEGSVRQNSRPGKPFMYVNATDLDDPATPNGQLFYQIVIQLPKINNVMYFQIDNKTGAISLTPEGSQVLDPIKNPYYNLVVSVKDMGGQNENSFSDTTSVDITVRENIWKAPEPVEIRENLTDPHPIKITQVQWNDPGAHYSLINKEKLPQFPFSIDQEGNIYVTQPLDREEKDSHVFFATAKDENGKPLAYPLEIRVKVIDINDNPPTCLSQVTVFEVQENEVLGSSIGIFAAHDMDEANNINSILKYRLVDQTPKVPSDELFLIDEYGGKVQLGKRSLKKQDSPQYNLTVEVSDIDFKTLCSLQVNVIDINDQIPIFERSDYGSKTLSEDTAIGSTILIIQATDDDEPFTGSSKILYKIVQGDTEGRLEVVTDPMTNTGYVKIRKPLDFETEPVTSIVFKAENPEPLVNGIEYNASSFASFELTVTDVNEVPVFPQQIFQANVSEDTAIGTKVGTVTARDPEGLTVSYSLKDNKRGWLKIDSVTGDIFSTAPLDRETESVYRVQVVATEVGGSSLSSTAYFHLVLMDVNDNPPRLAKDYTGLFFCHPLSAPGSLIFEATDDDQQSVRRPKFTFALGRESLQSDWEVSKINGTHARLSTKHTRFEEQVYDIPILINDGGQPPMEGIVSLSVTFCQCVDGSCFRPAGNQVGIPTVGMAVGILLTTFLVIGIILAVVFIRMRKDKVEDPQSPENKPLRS

[5] = target: T1, human cadherin-17 (CDH17), endogenously …; experiment: flow cytometry (iQue) on SNUC1 cells, 1 µg Ab
[6] = target: T1, human cadherin-17 (CDH17), endogenously …; experiment: flow cytometry (iQue) on LS513 cells, 1 µg Ab
[7] = target: T3, human CDH17-mGFP fusion protein overexpressed on HEK293T cells (clone G11) (human, UniProt Q12864 23-832); experiment: KinExA, cell-based, HEK293T human CDH17mGFP G11 (same value as r12)
T3 construct: also called HEK293T CDH17mGFP Clone G11; HEK293T Human CDH17mGFP G11; not shown: mGFP fluorescent protein fused to CDH17
Description: (§1) The cell-based antibody affinity (KD) of the anti-CDH17 antibodies was measured by KinExA 4000 (Sapidyne Instrument, Boise, Idaho). Briefly, HEK293T overexpressing CDH17-fluorescent protein fusion (i.e., human CDH17-mGFP, monkey CDH17-mGFP, mouse CDH17-mGFP or rat CDH17-mGFP) were detached with Versene and equilibrated with either 50 pM, 200 pM, 20 nM, or 50 nM antibody in 2% FBS/DMEM at 4° C. overnight. The cell concentration started at 5×10⁶ cells/mL or 1×10⁷ cells/mL and 2-fold serial dilutions were performed up to 10 points. The next day, the cells were centrifuged at 1500 rpm for 10 min and the supernatants were saved. […] In contrast, while the humanized anti-CDH17 antibody, 07-0653-h43, fails to bind mouse CDH17 protein, it binds rat CDH17 protein equally well as to human and monkey CDH17 protein such that its Kp is less than about 1 nM for human, monkey and rat CDH17 proteins with overlapping 95% confidence interval values.

[8] = target: T3, human CDH17-mGFP fusion protein …; experiment: KinExA, cell-based, HEK293T CDH17mGFP clone G11
Description: as §1

[9] = target: T1, human cadherin-17 (CDH17), endogenously …; experiment: KinExA, cell-based, SNUC1 cells
[10] = target: T4, mouse CDH17-mGFP fusion protein overexpressed on HEK293T cells (mouse, UniProt Q9R100 26-827); experiment: flow cytometry (BD C6) on HEK293T Mouse CDH17 mGFP cells
T4 construct: also called HEK293T Mouse CDH17mGFP mass; not shown: mGFP fluorescent protein
T4 sequence (Q9R100 26-827): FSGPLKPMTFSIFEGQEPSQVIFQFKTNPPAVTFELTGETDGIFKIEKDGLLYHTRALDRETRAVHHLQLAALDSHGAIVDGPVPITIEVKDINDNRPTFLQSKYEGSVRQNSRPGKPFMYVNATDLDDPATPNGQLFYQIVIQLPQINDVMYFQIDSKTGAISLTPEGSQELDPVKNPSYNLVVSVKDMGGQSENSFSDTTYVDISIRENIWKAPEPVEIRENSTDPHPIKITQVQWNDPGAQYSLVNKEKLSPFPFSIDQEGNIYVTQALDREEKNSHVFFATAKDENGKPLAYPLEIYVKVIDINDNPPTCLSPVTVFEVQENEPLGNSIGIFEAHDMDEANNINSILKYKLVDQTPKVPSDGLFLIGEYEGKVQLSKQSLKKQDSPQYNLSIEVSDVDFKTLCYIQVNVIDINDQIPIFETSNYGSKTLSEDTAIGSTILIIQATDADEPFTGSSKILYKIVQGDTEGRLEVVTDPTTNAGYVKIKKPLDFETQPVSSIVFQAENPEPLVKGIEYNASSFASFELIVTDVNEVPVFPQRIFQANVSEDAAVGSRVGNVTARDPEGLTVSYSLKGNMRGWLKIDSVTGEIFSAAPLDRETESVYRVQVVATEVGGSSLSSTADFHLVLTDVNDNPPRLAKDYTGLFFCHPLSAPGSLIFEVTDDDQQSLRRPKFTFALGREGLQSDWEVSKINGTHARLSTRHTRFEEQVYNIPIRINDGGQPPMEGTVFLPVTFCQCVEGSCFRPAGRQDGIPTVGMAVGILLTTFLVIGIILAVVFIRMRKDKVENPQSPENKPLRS
Description: (§2) To determine relative antigen binding strengths of the humanized antibodies, FACS assays were carried out as essentially described in Example 1. […] Using a BD Biosciences Accuri™ C6 Flow Cytometer (San Jose, CA), antibody binding based on Alexa Fluor® 647 fluorescence was measured in the FL4-H channel and fusion protein overexpression based on GFP fluorescence was measured in the FL1-H channel.

[11] = target: T4, mouse CDH17-mGFP fusion protein …; experiment: flow cytometry on HEK293T mouse CDH17mGFP mass population, 20 µg/ml
[12] = target: T5, recombinant CDH17 extracellular domain (ECD) with 6x His tag (human, UniProt Q12864 23-787); experiment: ELISA on recombinant CDH17 ECD-6xHis
T5 construct: also called Recombinant CDH17 ECD-6xhis tag

[13] = target: T3, human CDH17-mGFP fusion protein …; experiment: flow cytometry on HEK293T human CDH17mGFP G11, 20 µg/ml
[14] = target: T3, human CDH17-mGFP fusion protein …; experiment: KinExA, cell-based, HEK293T overexpressing human CDH17-mGFP (FIG. 16)
Description: as §1

[15] = target: T1, human cadherin-17 (CDH17), endogenously …; experiment: flow cytometry on LS513 cells (CDH17+), 20 µg/ml
[16] = target: T1, human cadherin-17 (CDH17), endogenously …; experiment: flow cytometry (iQue) on PATU8988S cells, 0.2 µg Ab
[17] = target: T3, human CDH17-mGFP fusion protein …; experiment: flow cytometry (iQue) on HEK293T CDH17 mGFP clone G11 (human), 0.2 µg Ab
[18] = target: T3, human CDH17-mGFP fusion protein …; experiment: flow cytometry (iQue) on HEK293T CDH17 mGFP clone G11 (human), 1 µg Ab
[19] = target: T2, rat CDH17 fused to moxGFP, …; experiment: flow cytometry (BD C6) on HEK293T Rat CDH17 moxGFP cells
Description: as §2

[20] = target: T1, human cadherin-17 (CDH17), endogenously …; experiment: flow cytometry (iQue) on PATU8988S cells, 1 µg Ab
[21] = target: T1, human cadherin-17 (CDH17), endogenously …; experiment: flow cytometry (iQue) on SNUC1 cells, 0.2 µg Ab

B1: 07-0663-h7-VC-PAB-MMAE (antibody, human IgG1, kappa, DAR about 4, V domains shown)
VH: QVQLVQSGAEVKKPGSSVKISCKVSGYTFTDHTIHWMRQAPGQGLEWIGYIFPRDDIVVYAQKFQGRATLTADKSTSTAYMELSSLRSEDTAVYYCARPPYYYSRNFYFDYWGQGTTLTVSS
VL: DIQMTQSPSSLSASVGDRVTITCRVSSIISSSKLHWYQQKPGKAPKPLIYGTSTLASGVPSRFSGSGSGTDYTLTISSLQPEDFATYYCQQWSNYPFTFGQGTKLEIKR
modifications: MC-VC-PAB-MMAE on free thiols of cysteines from reduced interchain disulfides; positions not given; MC-VC-PAB-MMAE on free thiols of cysteines from reduced interchain disulfides; average 4 MMAE per antibody; positions not given
ADC Binding Activity by Flow Cytometry [1]: 67400

B2: 07-0663-h7scFv anti-CDH17 scFv (scFv)
scFv: DIQMTQSPSSLSASVGDRVTITCRVSSIISSSKLHWYQQKPGKAPKPLIYGTSTLASGVPSRFSGSGSGTDYTLTISSLQPEDFATYYCQQWSNYPFTFGQGTKLEIKGGGGSGGGGSGGGGSQVQLVQSGAEVKKPGSSVKISCKVSGYTFTDHTIHWMRQAPGQGLEWIGYIFPRDDIVVYAQKFQGRATLTADKSTSTAYMELSSLRSEDTAVYYCARPPYYYSRNFYFDYWGQGTTLTVSSHHHHHH
notes: VL-linker-VH
FL4-H [2]: 2.05e+06

B3: 07-0646-h7scFv anti-CDH17 scFv (scFv)
scFv: DIQLTQSPSSLSASVGDRVTMTCRASSSVSSSYLHWYQQKPGKAPKLLIYSTSNLASGVPSRFSGSGSGTDYTLTISSVQPEDFATYYCQQYDSSPSTFGQGTKLEIKGGGGSGGGGSGGGGSQVQLVQSGAEVKKPGASVKMSCKASGYTFTSYNMHWVRQAPGQGLEWIGAIYPGNGDTSYAQKFQGRATLTVDTSTSTAYMELSSLRSEDTAVYYCARGRGRYFEYWGQGTTLTVSSHHHHHH
notes: VL-linker-VH; also called CDH17-646-h7scfv; 07-0646-7scFv
FL4-H [2]: 864000

B4: 07-0653-h43scFv anti-CDH17 scFv (scFv)
scFv: DIQLTQSPSSLSASVGDRVTITCRATSSLSYIHWYQQKPGKAPKPLIYEISKLASGVPSRFSGSGSGTDYTLTISSLQPEDFATYYCQQWNYPFTFGQGTKLEIKGGGGSGGGGSGGGGSQVQLVQSGAEVKKPGASVKVSCKASGYTFTDYYMNWVRQAPGQGLEWMGVIYPYSGGIGYAQKFQGRVTMTVDKSTSTAYMELSSLRSEDTAVYYCARGRGDYFGLFDFWGQGTTVTVSSHHHHHH
notes: VL-linker-VH; also called CDH17-653-h43scfv
FL4-H [2]: 2.21e+06

B5: 07-0653-h43-VC-PAB-MMAE (antibody, human IgG1, DAR about 4, V domains shown)
VH: QVQLVQSGAEVKKPGASVKVSCKASGYTFTDYYMNWVRQAPGQGLEWMGVIYPYSGGIGYAQKFQGRVTMTVDKSTSTAYMELSSLRSEDTAVYYCARGRGDYFGLFDFWGQGTTVTVSS
VL: DIQLTQSPSSLSASVGDRVTITCRATSSLSYIHWYQQKPGKAPKPLIYEISKLASGVPSRFSGSGSGTDYTLTISSLQPEDFATYYCQQWNYPFTFGQGTKLEIK
modifications: MC-VC-PAB-MMAE on free thiols of cysteines from reduced interchain disulfides; positions not given; MC-VC-PAB-MMAE on free thiols of cysteines from reduced interchain disulfides; average 4 MMAE per antibody; positions not given
notes: also called CDH17-ADC-653-h43; 07-0653-h43-MMAE
ADC Binding Activity by Flow Cytometry [1]: 35100

B6: humanized anti-CDH17 antibody 07-0646-h7 (antibody, human IgG1, V domains shown)
VH: QVQLVQSGAEVKKPGASVKMSCKASGYTFTSYNMHWVRQAPGQGLEWIGAIYPGNGDTSYAQKFQGRATLTVDTSTSTAYMELSSLRSEDTAVYYCARGRGRYFEYWGQGTTLTVSS
VL: DIQLTQSPSSLSASVGDRVTMTCRASSSVSSSYLHWYQQKPGKAPKLLIYSTSNLASGVPSRFSGSGSGTDYTLTISSVQPEDFATYYCQQYDSSPSTFGQGTKLEIK
notes: C-terminal lysine kept in the humanized antibodies; also called CDH17-646-h7; 07-646-h7
Antibody Binding Activity by Flow iQue [3]: 2.86e+06
Cross Reactivity by Flow [4]: 2200
Antibody Binding Activity by Flow iQue [5]: 74900
Antibody Binding Activity by Flow iQue [6]: 2.66e+06
Kd [7]: 0.817 nM
Kd [8]: 0.817 nM
Kd [9]: 0.532 nM
binding result [10]: no binding (tested: 1 µg)
Cross Reactivity by Flow [11]: 2510
EC50 [12]: 0.73 nM
Cross Reactivity by Flow [13]: 50500
Kd [14]: < 1 nM
Antibody Binding Activity by Flow Cytometry [15]: 47200
Antibody Binding Activity by Flow iQue [16]: 21400
Antibody Binding Activity by Flow iQue [17]: 50500
Antibody Binding Activity by Flow iQue [18]: 181000
binding result [19]: no binding (tested: 1 µg)
Antibody Binding Activity by Flow iQue [20]: 95600
Antibody Binding Activity by Flow iQue [21]: 120000

B7: 07-0646-h7-VC-PAB-MMAE (antibody, human IgG1, DAR about 4, V domains shown)
VH: B6 VH
VL: B6 VL
modifications: MC-VC-PAB-MMAE on free thiols of cysteines from reduced interchain disulfides; positions not given; MC-VC-PAB-MMAE on free thiols of cysteines from reduced interchain disulfides; average 4 MMAE per antibody; positions not given
notes: also called CDH17-ADC-646-h7; 07-0646-h7-MMAE
ADC Binding Activity by Flow Cytometry [1]: 73500
